B1: c11H9 (chimeric 11H9, human IgG1 / human kappa 1) (antibody, V domains shown)
VH: EVQLVESGGRLVQPKGSLKLSCAASGFTFNTYAMYWIRQAPGKGLEWVARIRSKSNNYAIYYADSVKDRFTISRDDSQSMLYLQMNNLKTEDTAMYYCVRGWDWFAYWGQGTPVTVSA
VL: DVVMTQTPLSLPVSLGDQASISCRSSQSLVHSNGNTYLHWYLQKPGQSPKLLIYKVSNRFSGVPDRFSGSGSGTDFTLKISRVEAEDLGVYFCSQNTHVPPTFGGGTKLEIKR
notes: Expressed in CHO cells; also called chimeric (c) 11H9; c1H9
B2: c12H8 (chimeric 12H8, human IgG1 / human kappa 1) (antibody, V domains shown)
VH: QIQLVQSGPELKKPGETVKISCKASGYTFTNYGMNWVQQAPGKGLKWMGWINTYTGEPTYADDFKGRFAFSLETSASTAYLQINNLKNEDMATYFCARGGIATPTSYWGQGTTLTVSS
VL: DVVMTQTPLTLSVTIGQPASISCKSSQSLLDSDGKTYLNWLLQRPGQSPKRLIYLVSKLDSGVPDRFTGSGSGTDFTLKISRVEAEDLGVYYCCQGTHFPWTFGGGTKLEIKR
notes: Expressed in CHO cells
B3: c12H8-DM1 (antibody, V domains shown)
VH: B2 VH
VL: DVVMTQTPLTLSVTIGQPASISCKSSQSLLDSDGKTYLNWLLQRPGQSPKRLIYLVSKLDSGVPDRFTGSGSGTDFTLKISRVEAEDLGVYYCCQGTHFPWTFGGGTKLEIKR
modifications: DM1 (mertansine) conjugated with SMCC-DM1, target DAR 3.5; sites not stated
B4: mAb 12H8 (hybridoma-derived) (antibody, mouse IgG1, V domains shown)
VH: B2 VH
VL: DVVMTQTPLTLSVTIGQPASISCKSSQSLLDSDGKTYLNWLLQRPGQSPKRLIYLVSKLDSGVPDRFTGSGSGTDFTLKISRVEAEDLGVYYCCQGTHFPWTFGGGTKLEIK
notes: also called clone 12H8 (fusion F101); 12HD8

Tests used:
rhCA-XII = biological target: T1, rhCA-XII (human, UniProt O43570 25-291, limits assumed); assay: SPR, antibody captured by anti-human Fc
T1 construct: Bought; construct not described; also called recombinant human CA-XII (Sino Biologics)
T1 sequence (O43570 25-291 limits assumed): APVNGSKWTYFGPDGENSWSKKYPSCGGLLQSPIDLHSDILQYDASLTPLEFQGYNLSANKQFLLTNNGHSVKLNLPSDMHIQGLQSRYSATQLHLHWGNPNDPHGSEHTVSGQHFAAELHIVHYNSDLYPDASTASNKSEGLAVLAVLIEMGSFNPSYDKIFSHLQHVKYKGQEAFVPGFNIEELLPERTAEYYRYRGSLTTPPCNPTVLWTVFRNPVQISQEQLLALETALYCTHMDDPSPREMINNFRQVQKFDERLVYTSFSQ

[1] = biological target: T2, human CA-XII extracellular domain (ECD) (human, UniProt O43570 25-301); assay: SPR, antibody captured by anti-human Fc
T2 construct: extracellular domain
T2 sequence (O43570 25-301): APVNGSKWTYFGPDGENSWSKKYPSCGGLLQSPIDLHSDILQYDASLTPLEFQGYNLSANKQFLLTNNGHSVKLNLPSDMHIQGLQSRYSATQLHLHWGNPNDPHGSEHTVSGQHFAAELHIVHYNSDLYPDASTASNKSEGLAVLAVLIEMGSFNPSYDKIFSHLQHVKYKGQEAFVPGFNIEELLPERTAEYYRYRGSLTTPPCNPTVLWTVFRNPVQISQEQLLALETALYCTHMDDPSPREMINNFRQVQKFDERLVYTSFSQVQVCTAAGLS

rmCA-IX = biological target: T3, rmCA-IX (murine, UniProt Q8VHB5 32-389, limits assumed); assay: SPR, antibody captured by anti-human Fc
T3 construct: Bought; construct not described; also called recombinant murine (rm)CA-IX
T3 sequence (Q8VHB5 32-389 limits assumed): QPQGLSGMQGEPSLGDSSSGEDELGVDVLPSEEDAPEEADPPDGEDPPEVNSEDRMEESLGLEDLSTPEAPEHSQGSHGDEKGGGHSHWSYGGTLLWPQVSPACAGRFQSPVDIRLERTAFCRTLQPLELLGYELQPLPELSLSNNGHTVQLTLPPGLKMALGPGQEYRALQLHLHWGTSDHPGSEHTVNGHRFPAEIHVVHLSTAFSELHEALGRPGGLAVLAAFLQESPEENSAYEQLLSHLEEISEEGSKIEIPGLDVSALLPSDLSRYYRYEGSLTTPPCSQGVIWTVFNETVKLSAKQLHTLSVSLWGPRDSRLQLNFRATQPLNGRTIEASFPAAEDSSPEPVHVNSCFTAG

rhCA-IV = biological target: T4, rhCA-IV (human, UniProt P22748 19-283, limits assumed); assay: SPR, antibody captured by anti-human Fc
T4 construct: Bought; construct not described; also called recombinant human CA-IV
T4 sequence (P22748 19-283 limits assumed): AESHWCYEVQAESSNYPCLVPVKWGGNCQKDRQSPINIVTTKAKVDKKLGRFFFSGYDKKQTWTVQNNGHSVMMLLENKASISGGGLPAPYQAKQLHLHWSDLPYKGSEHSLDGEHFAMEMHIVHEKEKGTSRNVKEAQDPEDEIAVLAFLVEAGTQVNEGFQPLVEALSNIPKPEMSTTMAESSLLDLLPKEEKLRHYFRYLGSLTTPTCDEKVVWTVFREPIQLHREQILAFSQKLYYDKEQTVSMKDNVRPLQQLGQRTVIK

rhCA-XIV = biological target: T5, rhCA-XIV (human, UniProt Q9ULX7 16-290, limits assumed); assay: SPR, antibody captured by anti-human Fc
T5 construct: Bought; construct not described; also called recombinant human CA-XIV
T5 sequence (Q9ULX7 16-290 limits assumed): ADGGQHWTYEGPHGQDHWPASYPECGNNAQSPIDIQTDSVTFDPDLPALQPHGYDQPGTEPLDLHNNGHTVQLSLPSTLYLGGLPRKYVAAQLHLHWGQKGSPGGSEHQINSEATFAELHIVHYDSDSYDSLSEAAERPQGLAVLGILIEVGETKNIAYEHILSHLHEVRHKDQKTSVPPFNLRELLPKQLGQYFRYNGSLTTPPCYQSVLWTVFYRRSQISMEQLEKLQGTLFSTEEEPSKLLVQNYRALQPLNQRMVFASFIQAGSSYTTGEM

[2] = biological target: T6, hCA-IX fragment 2 (aa 38-136, +PG+) displayed on yeast as Aga2-HA-CA9-MYC (pPNL6), clone 2B (human, UniProt P32781 19-87; Q16790 38-136); assay: YSD whole yeast cell ELISA, native, normalised to anti-MYC
T6 construct: not shown: HA tag; MYC tag
T6 sequence (P32781 19-87 limits assumed, chain 1 of 2, other chains not shown): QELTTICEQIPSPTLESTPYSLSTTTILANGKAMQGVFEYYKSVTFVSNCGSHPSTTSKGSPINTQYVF

[3] = biological target: T7, hCA-IX fragment 8 (aa 38-414, +PG+CA+) displayed on yeast as Aga2-HA-CA9-MYC (pPNL6), clone 8B (human, UniProt P32781 19-87; Q16790 38-414); assay: as above
T7 sequence (P32781 19-87 limits assumed, chain 1 of 2, other chains not shown): as above

[4] = biological target: T8, hCA-IX PG domain fragment #10 (aa 126-140) displayed on yeast as Aga2-HA-CA9-MYC (pPNL6), clone 10 A + B (human, UniProt P32781 19-87 (Saccharomyces cerevisiae entry)); assay: YSD whole yeast cell ELISA, native PG tiling fragment;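 further: monoclonal antibody binding to intact yeast cells displaying the fragment, read by ELISA, with the anti-CA-IX signal normalized against the anti-MYC display signal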
T8 construct: not shown: HA tag; MYC tag
T8 sequence (P32781 19-87 limits assumed): as the sequence (P32781 19-87 limits assumed, chain 1 of 2, other chains not shown) above

[5] = biological target: T9, hCA-IX PG domain fragment #4 (aa 67-81) displayed on yeast as Aga2-HA-CA9-MYC (pPNL6), clone 4 A + B (human, UniProt P32781 19-87 (Saccharomyces cerevisiae entry)); assay: as above
T9 construct: not shown: HA tag; MYC tag
T9 sequence (P32781 19-87 limits assumed): as the sequence (P32781 19-87 limits assumed, chain 1 of 2, other chains not shown) above

[6] = biological target: T10, hCA-IX PG domain fragment #11 (aa 37-71) displayed on yeast as Aga2-HA-CA9-MYC (pPNL6), clone 11 A + B (human, UniProt P32781 19-87 (Saccharomyces cerevisiae entry)); assay: as above
T10 construct: not shown: HA tag; MYC tag
T10 sequence (P32781 19-87 limits assumed, chain 1 of 2): as the sequence (P32781 19-87 limits assumed, chain 1 of 2, other chains not shown) above
T10 sequence (chain (part 2 of 2), as listed by the source limits assumed, chain 2 of 2): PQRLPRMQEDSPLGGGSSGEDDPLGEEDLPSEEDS

[7] = biological target: T11, hCA-IX PG domain fragment #9 (aa 117-131) displayed on yeast as Aga2-HA-CA9-MYC (pPNL6), clone 9 A + B (human, UniProt P32781 19-87 (Saccharomyces cerevisiae entry)); assay: as above
T11 construct: not shown: HA tag; MYC tag
T11 sequence (P32781 19-87 limits assumed): as the sequence (P32781 19-87 limits assumed, chain 1 of 2, other chains not shown) above

[8] = biological target: T12, hCA-IX PG domain fragment #7 (aa 97-111) displayed on yeast as Aga2-HA-CA9-MYC (pPNL6), clone 7 A + B (human, UniProt P32781 19-87 (Saccharomyces cerevisiae entry)); assay: as above
T12 construct: not shown: HA tag; MYC tag
T12 sequence (P32781 19-87 limits assumed): as the sequence (P32781 19-87 limits assumed, chain 1 of 2, other chains not shown) above

[9] = biological target: T13, hCA-IX PG domain fragment #3 (aa 57-71) displayed on yeast as Aga2-HA-CA9-MYC (pPNL6), clone 3 A + B (human, UniProt P32781 19-87 (Saccharomyces cerevisiae entry)); assay: as above
T13 construct: not shown: HA tag; MYC tag
T13 sequence (P32781 19-87 limits assumed): as the sequence (P32781 19-87 limits assumed, chain 1 of 2, other chains not shown) above

[10] = biological target: T14, hCA-IX PG domain fragment #2 (aa 47-61) displayed on yeast as Aga2-HA-CA9-MYC (pPNL6), clone 2 A + B (human, UniProt P32781 19-87 (Saccharomyces cerevisiae entry)); assay: as above
T14 construct: not shown: HA tag; MYC tag
T14 sequence (P32781 19-87 limits assumed): as the sequence (P32781 19-87 limits assumed, chain 1 of 2, other chains not shown) above

[11] = biological target: T15, hCA-IX PG domain fragment #1 (aa 37-51) displayed on yeast as Aga2-HA-CA9-MYC (pPNL6), clone 1 A + B (human, UniProt P32781 19-87 (Saccharomyces cerevisiae entry)); assay: as above
T15 construct: not shown: HA tag; MYC tag
T15 sequence (P32781 19-87 limits assumed): as the sequence (P32781 19-87 limits assumed, chain 1 of 2, other chains not shown) above

[12] = biological target: T16, hCA-IX PG domain fragment #12 (aa 67-111) displayed on yeast as Aga2-HA-CA9-MYC (pPNL6), clone 12 A + B (human, UniProt P32781 19-87 (Saccharomyces cerevisiae entry)); assay: YSD whole yeast cell ELISA, native PG tiling fragment, normalised to anti-MYC
T16 construct: not shown: HA tag; MYC tag
T16 sequence (P32781 19-87 limits assumed, chain 1 of 2): as the sequence (P32781 19-87 limits assumed, chain 1 of 2, other chains not shown) above
T16 sequence (chain (part 2 of 2), as listed by the source limits assumed, chain 2 of 2): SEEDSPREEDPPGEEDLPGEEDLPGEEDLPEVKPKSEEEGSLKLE

[13] = biological target: T17, hCA-IX PG domain fragment #5 (aa 77-91) displayed on yeast as Aga2-HA-CA9-MYC (pPNL6), clone 5 A + B (human, UniProt P32781 19-87 (Saccharomyces cerevisiae entry)); assay: as above
T17 construct: not shown: HA tag; MYC tag
T17 sequence (P32781 19-87 limits assumed): as the sequence (P32781 19-87 limits assumed, chain 1 of 2, other chains not shown) above

[14] = biological target: T18, hCA-IX PG domain fragment #6 (aa 87-101) displayed on yeast as Aga2-HA-CA9-MYC (pPNL6), clone 6 A + B (human, UniProt P32781 19-87 (Saccharomyces cerevisiae entry)); assay: as above
T18 construct: not shown: HA tag; MYC tag
T18 sequence (P32781 19-87 limits assumed): as the sequence (P32781 19-87 limits assumed, chain 1 of 2, other chains not shown) above

[15] = biological target: T19, hCA-IX PG domain fragment #14 (aa 37-140) displayed on yeast as Aga2-HA-CA9-MYC (pPNL6), clone 14 A + B (human, UniProt P32781 19-87 (Saccharomyces cerevisiae entry)); assay: as above
T19 construct: not shown: HA tag; MYC tag
T19 sequence (P32781 19-87 limits assumed, chain 1 of 2): as the sequence (P32781 19-87 limits assumed, chain 1 of 2, other chains not shown) above
T19 sequence (chain (part 2 of 2), as listed by the source limits assumed, chain 2 of 2): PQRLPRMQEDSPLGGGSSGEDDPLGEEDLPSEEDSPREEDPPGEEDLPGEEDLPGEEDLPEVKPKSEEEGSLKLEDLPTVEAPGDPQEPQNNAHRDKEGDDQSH

[16] = biological target: human Carbonic Anhydrase IX (hCA-IX) (human, UniProt Q16790 38-459); assay: cell-based or functional assay
[17] = biological target: T20, dimeric CA-IX extracellular domain (ECD) from mouse (mouse, UniProt Q8VHB5 32-390); assay: SPR, antibody captured by anti-human Fc, specific binding yes/no
T20 construct: extracellular domain
T20 sequence (Q8VHB5 32-390): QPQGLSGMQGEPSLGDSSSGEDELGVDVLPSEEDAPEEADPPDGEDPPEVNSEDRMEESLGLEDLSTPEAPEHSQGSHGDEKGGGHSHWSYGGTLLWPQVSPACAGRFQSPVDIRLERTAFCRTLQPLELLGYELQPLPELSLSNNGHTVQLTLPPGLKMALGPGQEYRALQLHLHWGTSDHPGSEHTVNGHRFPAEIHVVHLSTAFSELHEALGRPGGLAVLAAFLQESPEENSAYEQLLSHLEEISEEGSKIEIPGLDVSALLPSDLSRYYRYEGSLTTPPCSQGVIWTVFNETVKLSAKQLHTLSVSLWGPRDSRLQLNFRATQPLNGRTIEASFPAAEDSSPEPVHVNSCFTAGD

[18] = biological target: T7, hCA-IX fragment 8 (aa 38-414, +PG+CA+) …; assay: YSD whole yeast cell ELISA, heat-denatured (80 C, 30 min), normalised to anti-MYC
rhCA-IX ECD dimer [19] = biological target: T21, rhCA-IX ECD dimer (human, UniProt Q16790 38-414); assay: SPR (ProteOn XPR36), antibody captured by anti-human Fc, 0.74-60 nM antigen flowed, 1:1 model, 25 C
[20] = biological target: T22, hCA-IX PG domain fragment #8 (aa 107-121) displayed on yeast as Aga2-HA-CA9-MYC (pPNL6), clone 8 A + B (human, UniProt P32781 19-87 (Saccharomyces cerevisiae entry)); assay: YSD whole yeast cell ELISA, native PG tiling fragment;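 further: monoclonal antibody binding to intact yeast cells displaying the fragment, read by ELISA, with the anti-CA-IX signal normalized against the anti-MYC display signal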
T22 construct: not shown: HA tag; MYC tag
T22 sequence (P32781 19-87 limits assumed): as the sequence (P32781 19-87 limits assumed, chain 1 of 2, other chains not shown) above

[21] = biological target: T16, hCA-IX PG domain fragment #12 (aa …); assay: as above
[22] = biological target: T17, hCA-IX PG domain fragment #5 (aa 77-91) …; assay: as above
[23] = biological target: T23, hCA-IX PG domain fragment #13 (aa 107-140) displayed on yeast as Aga2-HA-CA9-MYC (pPNL6), clone 13 A + B (human, UniProt P32781 19-87 (Saccharomyces cerevisiae entry)); assay: as above
T23 construct: not shown: HA tag; MYC tag
T23 sequence (P32781 19-87 limits assumed, chain 1 of 2): as the sequence (P32781 19-87 limits assumed, chain 1 of 2, other chains not shown) above
T23 sequence (chain (part 2 of 2), as listed by the source limits assumed, chain 2 of 2): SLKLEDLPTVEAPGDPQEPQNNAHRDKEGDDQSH

[24] = biological target: T18, hCA-IX PG domain fragment #6 (aa …); assay: as above
[25] = biological target: T10, hCA-IX PG domain fragment #11 (aa …); assay: YSD whole yeast cell ELISA, native PG tiling fragment, normalised to anti-MYC
[26] = biological target: T15, hCA-IX PG domain fragment #1 (aa 37-51) …; assay: as above
[27] = biological target: T24, rhCA-IX ECD mixture (monomer + dimer) (human, UniProt Q16790 38-414); assay: reverse phase protein array, purified antigen; RPPA; ratio native/denatured, purified antigen
[28] = biological target: T24, rhCA-IX ECD mixture (monomer + dimer); assay: SPR (ProteOn XPR36), mAb captured by anti-mouse Fc, 60 nM antigen flowed, 1:1 model, 25 C
rhCA-IX ECD dimer [29] = biological target: T21, rhCA-IX ECD dimer; assay: as above

Binder	binding result (rhCA-XII)	binding result [1]	binding result (rmCA-IX)	binding result (rhCA-IV)	binding result (rhCA-XIV)	binding result [2]	binding result [4]	binding result [5]	binding result [7]	binding result [8]	binding result [9]	binding result [10]	binding result [15]	further results
B1	no binding (tested: 100 nM)	no binding (tested: 100 nM)	no binding (tested: 100 nM)	no binding (tested: 100 nM)	no binding (tested: 100 nM)	binds	no binding	no binding	no binding	no binding	no binding	no binding	binds	binding result [3]: binds; binding result [6]: no binding; binding result [11]: no binding; binding result [12]: binds; binding result [13]: binds; binding result [14]: binds
B2	no binding (tested: 100 nM)	no binding (tested: 100 nM)	no binding (tested: 100 nM)	no binding (tested: 100 nM)	no binding (tested: 100 nM)	binds	no binding	no binding	no binding	no binding	no binding	no binding	binds	IC50 (nM), cell viability of sk-rc-52 cells, surrogate ADC assay (Mab-Zap saporin secondary antibody) [16]: 23.6 nM; binding result [17]: no binding; binding result [18]: binds; Kd (rhCA-IX ECD dimer [19]): 0.979 nM; binding result [20]: no binding; binding result [21]: no binding; binding result [22]: no binding; binding result [23]: no binding; binding result [24]: no binding; binding result [25]: binds; binding result [26]: binds
B3	–	–	–	–	–	–	–	–	–	–	–	–	–	IC50 (nM), cell viability of sk-rc-52 cells, ADC assay [16]: 17.9 nM
B4	–	–	–	–	–	–	–	–	–	–	–	–	–	Ratio (A)/(B), native over denatured [27]: 1.11; koff [28]: < 1e-05 s⁻¹; Kd (rhCA-IX ECD dimer [29]): 0.143 nM
